Reference: patent US20070065439A1 (Amgen, published 2007)
Changes are numbered by the printed parent chain. Each block holds one binder with its values, some of them ahead of it.

Experiments:
[1] = biological target: T1, Recombinant human IL-1beta (rhIL-1b) (human, UniProt P01584 117-269); assay: cell-based or functional assay
IL-1β R11A mutant = biological target: T2, IL-1β R11A mutant (human, UniProt P01584 117-269); assay: binding to site-directed IL-1β mutant; X = abrogation of binding
T2 construct: site-directed mutant

[2] = biological target: T1, Recombinant human IL-1beta (rhIL-1b); assay: Biacore low-res, mAb captured, 25C; IL-1β in solution (118 nM) over captured mAb; low-resolution Biacore, 25 C
[3] = biological target: T1, Recombinant human IL-1beta (rhIL-1b); assay: cell-based or functional assay; remark: listed apart in the source
[4] = biological target: T1, Recombinant human IL-1beta (rhIL-1b); assay: Biacore, Low Resolution screen
[5] = biological target: T1, Recombinant human IL-1beta (rhIL-1b); assay: Biacore, Medium Resolution; IL-1β in solution; medium-resolution Biacore
[6] = biological target: T1, Recombinant human IL-1beta (rhIL-1b); assay: Biacore high-res, mAb amine-coupled, 23C

B1: 9.31.1 (antibody, human IgG4, V domains shown)
VH: QVQLVESGGGLVKPGGSLRLSCAASGFTFSDYYMSWIRQAPGKGLEWVSYIRSSGSTIYYADSVKGRFTISRDNAKNSLYLQMNSLRAEDTAVYYCARTPYSGRYHWYFDLWGRGTLVTVS
VL: SYELTQPPSVSVSPGQTARITCSGDALPIKYAYWYQHKSGQAPVLVIYEDSKRPSGIPERFSGSSSGTMATLTISGAQVEDEADYYCYSTDSSGNHRVFGGGTKLTVL
notes: lambda; also called 9.31.3
EC50, inhibition of IL-1β-induced IL-6 production in MRC-5 cells [1]: 14.3 nM
binding result (IL-1β R11A mutant): no binding
Kd [2]: 5.76 nM
koff [2]: 0.0038 s⁻¹
kon [2]: 660000 M⁻¹ s⁻¹
% IL-6 production, supernatant 1:5 dilut. [3]: 6%
% IL-6 production, supernatant 1:10 dilut. [3]: 23%
% IL-6 production, supernatant 1:20 dilut. [3]: 13%

B2: 8.50.1 (antibody, human IgG4, V domains shown)
VH: QVQLQESGPGLVKPSETLSLTCTVSGGSISSDYWSWIRQPAGKGLEWIGRFYNSGRTNYRPSLKSRITMSVDTSKNQFSLKLSSVTAADTAVYYCARDMYSGRGNWYFDLWGRGTLVTVS
VL: B1 VL with I29K, H37Q, G94D
notes: lambda
binding result (IL-1β R11A mutant): no binding
Kd [2]: 9 nM
koff [2]: 0.027 s⁻¹
kon [2]: 3e+06 M⁻¹ s⁻¹

B4: 9.26.1 (antibody, human IgG4, V domains shown)
VH: QVQLVESGGGVVQPGRSLRLSCAASGFTFNNYGMHWVRQAPGKGLECVAVIWYDGGNKYYADSVKGRFAISRDNSKNTLYLQMNSLRAEDTAVYYCTAVTKLNYYYGMDVWGQGTTVTVS
VL: QSALTQPASVSGSPGQSITISCTGTSSDVGGYNYVSWYQQHPGKAPKLMIYEVSNRPSGVSNRFSGSKSGNTASLTISGLQAEDEADYYCSSYTSSSILVFGGGTKLTVL
notes: lambda; also called 9.26.3
EC50, inhibition of IL-1β-induced IL-6 production in MRC-5 cells [1]: 5.68 nM
Kd [2]: 0.854 nM
koff [2]: 0.00035 s⁻¹
kon [2]: 410000 M⁻¹ s⁻¹
% IL-6 production, supernatant 1:5 dilut. [3]: 12%
% IL-6 production, supernatant 1:10 dilut. [3]: 27%
% IL-6 production, supernatant 1:20 dilut. [3]: 27%

Now from value to binder:

EC50, inhibition of IL-1β-induced IL-6 production in MRC-5 cells [1]: 1.59 nM
Kd [4]: 1.23 nM
Kd [2]: 1.23 nM
Kd [5]: 0.82 nM
% IL-6 production, supernatant 1:5 dilut. [3]: 6%
% IL-6 production, supernatant 1:10 dilut. [3]: 8%
% IL-6 production, supernatant 1:20 dilut. [3]: 23%
B3: 8.6.1 (antibody, human IgG4, V domains shown)
VH: QVQLQESGPGLVKPSETLSLTCTVSGGSVSSGGYYWSWVRQPPGKGLEWIGCIYFSESTNYNPSLKSRVTISVDTSKNQFSLKLSSVTAADTAVYYCARDPMHYYGMDVWGQGTTVTVSS
VL: SFELTQPPSVSVSPGQTASITCSGDKLGDKFACWYQQKPGQSPVLVIYQDTKRPSGIPERISGSNSGNTATLTISGTQAMDEADYYCQAWDSSTYVVFGGGTKLTVL
notes: lambda; also called 8.6.3

EC50, inhibition of IL-1β-induced IL-6 production in MRC-5 cells [1]: 5.47 nM
Kd [4]: 0.747 nM
binding result (IL-1β R11A mutant): no binding
Kd [2]: 0.747 nM
koff [2]: 0.00074 s⁻¹
kon [2]: 990000 M⁻¹ s⁻¹
Kd [5]: 0.29 nM
koff [5]: 0.00035 s⁻¹
kon [5]: 1.2e+06 M⁻¹ s⁻¹
% IL-6 production, supernatant 1:5 dilut. [3]: 4%
% IL-6 production, supernatant 1:10 dilut. [3]: 8%
% IL-6 production, supernatant 1:20 dilut. [3]: 16%
B5: 9.2.1 (antibody, human IgG4, V domains shown)
VH: B4 VH with K101T, N103Y
VL: B4 VL
notes: lambda

EC50, inhibition of IL-1β-induced IL-6 production in MRC-5 cells [1]: 2.91 nM
Kd [6]: 0.262 nM
koff [6]: 0.00019 s⁻¹
kon [6]: 727000 M⁻¹ s⁻¹
Kd [2]: 0.268 nM
koff [2]: 0.00015 s⁻¹
kon [2]: 560000 M⁻¹ s⁻¹
Kd [5]: 0.063 nM
koff [5]: 4e-05 s⁻¹
kon [5]: 640000 M⁻¹ s⁻¹
% IL-6 production, supernatant 1:5 dilut. [3]: 5%
% IL-6 production, supernatant 1:10 dilut. [3]: 10%
% IL-6 production, supernatant 1:20 dilut. [3]: 15%
B6: 9.19.1 (antibody, human IgG4, V domains shown)
VH: B4 VH with G114R
VL: B4 VL with L48F
notes: lambda; also called mAb 9.19.1
